Assay results: PMC4349727, “Redox-dependent chaperone/peroxidase function of 2-Cys-Prx from the cyanobacterium Anabaena PCC7120: role in oxidative stress tolerance” (BMC Plant Biology, 2015)
Values belong to the compound of their own block, whether it stands above or below them.

What was measured:
[1] = molecular target: T1, Alr4641 (2-Cys-Prx) (Nostoc sp. PCC 7120 = FACHB-418, UniProt A0ACD7RYC4); assay: NTRC-dependent peroxidase assay, NADPH oxidation at […] nm; type: biochemical; details: 100 uM peroxide; NTRC of Anabaena PCC7120 as reductant with NADPH
T1 construct: full length, 203 residues, 23 kD, N-terminal His-tag (pET16b), expressed in E. coli BL21pLysS; decamer/dodecamer
T1 sequence (A0ACD7RYC4 1-203): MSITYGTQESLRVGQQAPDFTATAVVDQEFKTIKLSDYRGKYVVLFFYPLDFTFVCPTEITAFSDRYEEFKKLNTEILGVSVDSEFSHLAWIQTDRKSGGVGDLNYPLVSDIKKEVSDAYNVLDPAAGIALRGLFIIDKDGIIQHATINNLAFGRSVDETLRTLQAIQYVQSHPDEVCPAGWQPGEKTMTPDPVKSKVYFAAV

[2] = molecular target: Alr4641 (typical 2-Cys-Prx of Anabaena PCC7120), His-tagged, wild type (Anabaena PCC7120); assay: SDS-PAGE under reducing or non-reducing conditions; 12% SDS-PAGE of purified proteins with or without DTT (10 mM); shows the inter-subunit disulfide dimer
[3] = molecular target: Alr4641 over-expressed in Anabaena PCC7120 (strain An4641+) (Anabaena PCC7120); assay: non-reducing SDS-PAGE with Western blot; cell free extracts of Anabaena (wild type after MV, H2O2, t-Bx or γ-radiation and recovery; An4641+; AnC56S+) on non-reducing SDS-PAGE, probed with Alr4641 antiserum; shows the disulfide dimer
[4] = molecular target: Alr4641, endogenous in wild-type Anabaena PCC7120 (Anabaena PCC7120 (endogenous)); assay: as above
[5] = molecular target: Alr4641 (typical 2-Cys-Prx of Anabaena PCC7120), His-tagged, wild type (Anabaena PCC7120); assay: SPR; Autolab Esprit; about 250 response units of Alr4641 immobilised on bare gold chip by EDC-NHS; NTRC injected at 4.33, 8.66, 10.39 and 12.99 μM, 33.3 μL/min, 300 s; 20°C; 10 mM HEPES, 100 mM NaCl, pH 7.5; equilibrium analysis

Compound: CC(C)(OO)c1ccccc1 [Cux, cumeme hydroperoxide]
NTRC-dependent peroxidase assay, NADPH oxidation at 340 nm [1]: best activity was observed with H2O2 followed by t-butyl hydroperoxide and cumeme hydroperoxide

Compound: CC(C)(C)OO [t-Bx, t-butyl hydroperoxide]
NTRC-dependent peroxidase assay, NADPH oxidation at 340 nm [1]: best activity was observed with H2O2 followed by t-butyl hydroperoxide and cumeme hydroperoxide

stoichiometry N [2]: 2
Compound: Alr4641 (typical 2-Cys-Prx of Anabaena PCC7120), His-tagged, wild type (enzyme)

stoichiometry N [3]: 2
Compound: Alr4641 over-expressed in Anabaena PCC7120 (strain An4641+) (enzyme)

stoichiometry N [4]: 2
Compound: Alr4641, endogenous in wild-type Anabaena PCC7120 (enzyme)

Kd [5]: 1040 nM
Compound: NADPH-dependent thioredoxin reductase (NTRC) from Anabaena PCC7120, His-tagged (enzyme)
